The values that follow are results of earlier work, collected in publication PMC11578925.

One data set deals with PD-L1 (Homo sapiens) (UniProt Q9NZQ7).
For a further data set, the target named is CD28 (Homo sapiens) (UniProt P10747).

UniProt Q9NZQ7, sequence (Q9NZQ7 19-238): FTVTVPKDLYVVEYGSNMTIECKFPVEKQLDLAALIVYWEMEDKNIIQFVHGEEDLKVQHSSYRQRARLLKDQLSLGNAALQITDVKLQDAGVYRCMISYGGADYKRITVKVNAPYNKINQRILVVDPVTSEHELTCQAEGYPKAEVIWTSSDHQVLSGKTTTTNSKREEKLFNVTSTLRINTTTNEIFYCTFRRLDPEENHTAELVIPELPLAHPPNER

Consider CD80 (from UniProt P33681), for which the Kd in the data set with PD-L1 (Homo sapiens) is 1700 nM; with CD28 (Homo sapiens) it was 4000 nM.
